Measurements reported in publication PMC9536601 (2022).

Key:
Test in all cases: SPR
[1] = biological target: T1, Ad6 hexon, on wild-type human adenovirus type 6 virions (human adenovirus type 6)
T1 chain: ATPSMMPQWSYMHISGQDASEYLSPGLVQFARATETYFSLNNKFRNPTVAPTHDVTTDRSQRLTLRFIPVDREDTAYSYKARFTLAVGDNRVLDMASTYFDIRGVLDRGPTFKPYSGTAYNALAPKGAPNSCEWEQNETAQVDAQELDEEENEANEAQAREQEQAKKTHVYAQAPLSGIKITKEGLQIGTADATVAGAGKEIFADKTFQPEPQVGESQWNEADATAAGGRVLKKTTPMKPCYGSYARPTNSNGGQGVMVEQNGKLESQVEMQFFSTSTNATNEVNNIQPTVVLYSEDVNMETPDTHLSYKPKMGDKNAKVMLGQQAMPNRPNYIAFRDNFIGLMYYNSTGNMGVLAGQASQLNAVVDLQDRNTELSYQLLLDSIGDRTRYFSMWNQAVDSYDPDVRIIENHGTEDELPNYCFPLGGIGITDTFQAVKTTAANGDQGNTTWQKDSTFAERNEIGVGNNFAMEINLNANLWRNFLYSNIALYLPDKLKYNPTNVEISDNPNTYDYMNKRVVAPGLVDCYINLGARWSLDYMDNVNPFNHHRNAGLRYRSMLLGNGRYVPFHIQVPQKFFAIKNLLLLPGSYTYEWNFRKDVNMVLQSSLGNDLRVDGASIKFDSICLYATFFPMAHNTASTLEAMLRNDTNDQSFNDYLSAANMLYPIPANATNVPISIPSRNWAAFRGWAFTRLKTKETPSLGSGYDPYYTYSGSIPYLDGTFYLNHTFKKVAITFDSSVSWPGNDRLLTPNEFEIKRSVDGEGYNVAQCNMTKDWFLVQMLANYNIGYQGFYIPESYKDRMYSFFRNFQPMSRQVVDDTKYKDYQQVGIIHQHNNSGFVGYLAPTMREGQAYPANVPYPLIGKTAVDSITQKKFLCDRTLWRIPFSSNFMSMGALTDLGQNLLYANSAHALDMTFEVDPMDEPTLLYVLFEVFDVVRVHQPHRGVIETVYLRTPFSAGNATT

[2] = biological target: T2, Ad5 hexon, on wild-type human adenovirus type 5 virions (human adenovirus type 5, UniProt P04133 2-952)
T2 chain: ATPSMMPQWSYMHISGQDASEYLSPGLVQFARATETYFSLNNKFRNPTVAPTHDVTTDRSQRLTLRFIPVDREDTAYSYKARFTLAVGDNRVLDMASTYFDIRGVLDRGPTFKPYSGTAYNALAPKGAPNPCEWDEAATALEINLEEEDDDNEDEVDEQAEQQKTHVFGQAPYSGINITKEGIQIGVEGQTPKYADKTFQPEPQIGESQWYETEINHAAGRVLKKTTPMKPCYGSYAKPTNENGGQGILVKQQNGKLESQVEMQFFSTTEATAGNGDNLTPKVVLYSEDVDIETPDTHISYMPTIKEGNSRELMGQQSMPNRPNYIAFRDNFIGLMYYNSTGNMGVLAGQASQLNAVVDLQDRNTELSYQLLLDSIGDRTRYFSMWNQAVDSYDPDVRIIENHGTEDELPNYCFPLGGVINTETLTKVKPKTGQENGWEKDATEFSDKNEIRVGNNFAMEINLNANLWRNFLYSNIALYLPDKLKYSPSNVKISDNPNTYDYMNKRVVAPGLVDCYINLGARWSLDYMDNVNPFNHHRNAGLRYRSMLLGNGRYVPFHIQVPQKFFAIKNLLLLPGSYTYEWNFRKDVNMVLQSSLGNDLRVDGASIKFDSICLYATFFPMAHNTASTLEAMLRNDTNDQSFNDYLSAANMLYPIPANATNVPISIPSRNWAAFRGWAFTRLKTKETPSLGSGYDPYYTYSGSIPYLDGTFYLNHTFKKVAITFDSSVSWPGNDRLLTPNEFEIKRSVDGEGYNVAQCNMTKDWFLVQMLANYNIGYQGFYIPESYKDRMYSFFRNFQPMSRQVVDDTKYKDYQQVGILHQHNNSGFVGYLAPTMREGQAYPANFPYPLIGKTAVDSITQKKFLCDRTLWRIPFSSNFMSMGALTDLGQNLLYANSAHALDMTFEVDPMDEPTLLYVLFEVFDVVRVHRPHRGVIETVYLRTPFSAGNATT

[3] = biological target: T3, Ad2 hexon, on wild-type human adenovirus type 2 virions (human adenovirus type 2, UniProt P03277 1-968)
T3 chain: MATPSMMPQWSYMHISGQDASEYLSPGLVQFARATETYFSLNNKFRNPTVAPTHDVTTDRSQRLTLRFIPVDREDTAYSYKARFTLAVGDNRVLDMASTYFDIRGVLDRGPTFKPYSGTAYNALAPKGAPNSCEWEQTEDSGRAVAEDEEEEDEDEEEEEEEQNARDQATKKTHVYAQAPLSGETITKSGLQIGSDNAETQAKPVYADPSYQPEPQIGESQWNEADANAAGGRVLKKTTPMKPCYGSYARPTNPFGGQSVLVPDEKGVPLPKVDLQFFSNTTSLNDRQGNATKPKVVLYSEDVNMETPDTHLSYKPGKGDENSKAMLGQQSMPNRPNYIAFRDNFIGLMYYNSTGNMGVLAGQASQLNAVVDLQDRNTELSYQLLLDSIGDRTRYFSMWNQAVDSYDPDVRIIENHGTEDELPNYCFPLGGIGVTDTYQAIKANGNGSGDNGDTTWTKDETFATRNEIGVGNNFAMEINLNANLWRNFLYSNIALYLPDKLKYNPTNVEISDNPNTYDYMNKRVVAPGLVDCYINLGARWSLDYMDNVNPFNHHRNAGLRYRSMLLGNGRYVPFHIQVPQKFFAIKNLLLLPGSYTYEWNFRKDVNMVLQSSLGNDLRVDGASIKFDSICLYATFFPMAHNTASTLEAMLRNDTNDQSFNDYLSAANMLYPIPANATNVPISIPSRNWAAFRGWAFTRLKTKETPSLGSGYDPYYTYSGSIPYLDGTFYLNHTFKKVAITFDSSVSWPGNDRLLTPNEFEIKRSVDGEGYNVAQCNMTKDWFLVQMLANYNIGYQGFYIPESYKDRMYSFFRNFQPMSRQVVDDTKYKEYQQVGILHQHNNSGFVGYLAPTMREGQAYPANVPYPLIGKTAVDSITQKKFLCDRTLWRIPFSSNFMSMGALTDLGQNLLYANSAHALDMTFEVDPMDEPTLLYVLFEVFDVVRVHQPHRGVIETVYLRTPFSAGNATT

B1: mouse coagulation factor X (natural protein)
chain 1: ANSFFEEFKKGNLERECMEEICSYEEVREIFEDDEKTKEYWTKYKDGDQCESSPCQNQGACRDGIGGYTCTCSEGFEGKNCELFVRKLCRLDNGDCDQFCREEQNSVVCSCASGYFLGNDGKSCISTAPFPCGKITTGRR
chain 2: VALNTSDSELDLEDALLDEDFLSPTENPIELLNLNETQPERSSDDLVRIVGGRECKDGECPWQALLINEDNEGFCGGTILNEFYILTAAHCLHQARRFKVRVGDRNTEKEEGNEMVHEVDVVIKHNKFQRDTYDYDIAVLRLKTPITFRMNVAPACLPQKDWAESTLMTQKTGIVSGFGRTHEKGRQSNILKMLEVPYVDRNTCKLSTSFSITQNMFCAGYEAKLEDACQGDSGGPHVTRFKNTYYVTGIVSWGEGCARKGKYGIYTKVTTFLKWIDRSMKARVGPTAETPRTAGPPN
modifications: gamma-carboxylated glutamate residues in the Gla domain
Kd [1]: 0.42 nM | Kd [2]: 0.35 nM | Kd [3]: 0.76 nM
